Target: human serum albumin (HSA) (human, UniProt P02768 25-609)
Experiment: native polyacrylamide gel (10%) shift after 60 min incubation at room temperature at the stated HSA:AAD molar ratios

Chain of human serum albumin (HSA) (P02768 25-609 limits assumed): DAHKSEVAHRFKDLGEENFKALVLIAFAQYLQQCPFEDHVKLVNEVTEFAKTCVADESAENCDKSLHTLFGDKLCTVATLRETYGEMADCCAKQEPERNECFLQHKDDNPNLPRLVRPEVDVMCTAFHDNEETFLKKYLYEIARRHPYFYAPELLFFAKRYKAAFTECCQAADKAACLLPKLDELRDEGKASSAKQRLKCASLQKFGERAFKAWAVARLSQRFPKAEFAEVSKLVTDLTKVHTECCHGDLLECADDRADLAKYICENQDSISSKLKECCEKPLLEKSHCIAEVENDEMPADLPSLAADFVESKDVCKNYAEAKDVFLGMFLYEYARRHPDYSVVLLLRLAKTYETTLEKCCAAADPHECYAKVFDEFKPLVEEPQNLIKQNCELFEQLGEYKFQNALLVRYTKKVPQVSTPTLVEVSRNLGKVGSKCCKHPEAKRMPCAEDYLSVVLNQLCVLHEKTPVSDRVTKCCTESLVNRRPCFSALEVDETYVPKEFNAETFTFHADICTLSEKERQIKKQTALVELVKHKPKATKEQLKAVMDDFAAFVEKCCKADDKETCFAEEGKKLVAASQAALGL

B1: albumin-binding arginine deiminase (AAD) fusion protein His-ABD-PolyN-ADI (enzyme)
chain: MHHHHHHDEAVDANSLAEAKVLANRELDKYGVSDYYKNLINNAKTVEGVKALIDEILAALPSGSNNNNNNGSGGSVFDSKFKGIHVYSEIGELESVLVHEPGREIDYITPARLDELLFSAILESHDARKEHKQFVAELKANDINVVELIDLVAETYDLASQEAKDKLIEEFLEDSEPVLSEEHKVVVRNFLKAKKTSRELVEIMMAGITKYDLGIEADHELIVDPMPNLYFTRDPFASVGNGVTIHYMRYKVRQRETLFSRFVFSNHPKLINTPWYYDPSLKLSIEGGDVFIYNNDTLVVGVSERTDLQTVTLLAKNIVANKECEFKRIVAINVPKWTNLMHLDTWLTMLDKDKFLYSPIANDVFKFWDYDLVNGGAEPQPVENGLPLEGLLQSIINKKPVLIPIAGEGASQMEIERETHFDGTNYLAIRPGVVIGYSRNEKTNAALEAAGIKVLPFHGNQLSLGMGNARCMSMPLSRKDVKW
- binding result: binds

Reference: patent USRE48805 (VISION GLOBAL, dated 2021)
